Results: the Immune Epitope Database (IEDB)

Tests used:
[1] = molecular target: HLA-A*02:12; experiment: IEDB peptide-MHC binding, purified MHC/direct/fluorescence; filed as Kd, often an IC50 or EC50 that approximates it; ≥ and ≤ were set here for values at or beyond the usual limits of such assays
[2] = molecular target: HLA-A*02:19; experiment: as above
[3] = molecular target: HLA-A*02:11; experiment: as above
[4] = molecular target: HLA-A*02:01; experiment: as above
[5] = molecular target: HLA-A*02:17; experiment: IEDB peptide-MHC binding, purified MHC/competitive/radioactivity; filed as Kd, often an IC50 or EC50 that approximates it; ≥ and ≤ were set here for values at or beyond the usual limits of such assays
[6] = molecular target: HLA-A*02:06; experiment: as above
[7] = molecular target: HLA-A*02:01; experiment: as above
[8] = molecular target: HLA-B*48:01; experiment: IEDB peptide-MHC binding, purified MHC/direct/fluorescence; filed as Kd, often an IC50 or EC50 that approximates it; ≥ and ≤ were set here for values at or beyond the usual limits of such assays
[9] = molecular target: HLA-B*57:01; experiment: IEDB peptide-MHC binding, purified MHC/competitive/radioactivity; filed as Kd, often an IC50 or EC50 that approximates it; ≥ and ≤ were set here for values at or beyond the usual limits of such assays
[10] = molecular target: HLA-B*58:01; experiment: as above
[11] = molecular target: HLA-A*32:01; experiment: as above; conditions: source organism: Dengue virus 3 Martinique/1243/1999
[12] = molecular target: HLA-A*02:03; experiment: as above
[13] = molecular target: HLA-A*11:01; experiment: IEDB peptide-MHC binding, purified MHC/competitive/fluorescence; ≥ and ≤ were set here for values at or beyond the usual limits of such assays
[14] = molecular target: HLA-A*24:02; experiment: as above; conditions: source organism: Vaccinia virus
[15] = molecular target: HLA-B*27:05; experiment: IEDB peptide-MHC binding, purified MHC/direct/fluorescence; filed as Kd, often an IC50 or EC50 that approximates it; ≥ and ≤ were set here for values at or beyond the usual limits of such assays; conditions: source organism: Francisella tularensis subsp. holarctica LVS
[16] = molecular target: HLA-A*68:01; experiment: IEDB peptide-MHC binding, purified MHC/competitive/radioactivity; filed as Kd, often an IC50 or EC50 that approximates it; ≥ and ≤ were set here for values at or beyond the usual limits of such assays; conditions: source organism: Dengue virus 3 Martinique/1243/1999
[17] = molecular target: HLA-B*08:01; experiment: as above; conditions: source organism: Dengue virus 3 Martinique/1243/1999
[18] = molecular target: HLA-B*58:01; experiment: IEDB peptide-MHC binding, purified MHC/direct/fluorescence; filed as Kd, often an IC50 or EC50 that approximates it; ≥ and ≤ were set here for values at or beyond the usual limits of such assays
[19] = molecular target: HLA-B*57:01; experiment: as above
[20] = molecular target: HLA-B*15:17; experiment: as above
[21] = molecular target: HLA-A*30:02; experiment: IEDB peptide-MHC binding, purified MHC/competitive/radioactivity; filed as Kd, often an IC50 or EC50 that approximates it; ≥ and ≤ were set here for values at or beyond the usual limits of such assays; conditions: source organism: Dengue virus 2 Jamaica/1409/1983
[22] = molecular target: HLA-B*46:01; experiment: IEDB peptide-MHC binding, purified MHC/direct/fluorescence; filed as Kd, often an IC50 or EC50 that approximates it; ≥ and ≤ were set here for values at or beyond the usual limits of such assays; conditions: source organism: Dengue virus
[23] = molecular target: HLA-B*45:01; experiment: IEDB peptide-MHC binding, purified MHC/competitive/radioactivity; filed as Kd, often an IC50 or EC50 that approximates it; ≥ and ≤ were set here for values at or beyond the usual limits of such assays
[24] = molecular target: HLA-B*44:03; experiment: as above
[25] = molecular target: HLA-B*18:01; experiment: as above
[26] = molecular target: HLA-B*44:02; experiment: as above
[27] = molecular target: HLA-B*40:02; experiment: as above
[28] = molecular target: HLA-B*40:01; experiment: as above
[29] = molecular target: HLA-A*01:01; experiment: as above; conditions: source organism: Dengue virus 2 Jamaica/1409/1983
[30] = source organism: Hantaanvirus CGRn93P8
[31] = source organism: Dengue virus 1 Singapore/S275/1990
[32] = source organism: Dengue virus 1 Brazil/97-11/1997
[33] = source organism: Dengue virus 2 Jamaica/1409/1983
[34] = source organism: Dengue virus 3 Martinique/1243/1999
[35] = source organism: Dengue virus 3 China/80-2/1980
[36] = source organism: Dengue virus 4 Philippines/H241/1956
[37] = source organism: Vaccinia virus
[38] = source organism: Dengue virus 3 Singapore/8120/1995
[39] = source organism: Vibrio parahaemolyticus
[40] = source organism: Dengue virus 2 Thailand/NGS-C/1944
[41] = source organism: Dengue virus 4 Dominica/814669/1981
[42] = source organism: Orthohantavirus tulaense
[43] = source organism: Mammarenavirus machupoense
[44] = source organism: Camelpox virus M-96
[45] = source organism: Mammarenavirus choriomeningitidis
[46] = source organism: Yellow fever virus

## TLAQSLIDV
[1]; [30]
  Kd: 4 nM
[2]; [30]
  Kd: 6 nM
[3]; [30]
  Kd: 2 nM
[4]; source organism: Orthohantavirus hantanense
  Kd: ≤ 1 nM

## FMNEDHWFS
[5]; [31]
  Kd: 244 nM
[6]; [32]
  Kd: 270 nM
[7]; [31]
  Kd: 9.76 nM

## GQWGGDWAV
[8]; source organism: Brucella abortus 2308
  Kd: 61.4 nM

## VTRLENLMW
[9]; [33]
  Kd: 3.79 nM

## VIASSGMLW
[10]; [34]
  Kd: 56 nM

## SMINGVVKL
[5]; [35]
  Kd: 425 nM
[11]
  Kd: 1490 nM
[12]; [34]
  Kd: 18.4 nM

## SMAMTCIAV
[5]; [36]
  Kd: 74 nM
[12]; [36]
  Kd: 4.07 nM
[7]; [36]
  Kd: 11.9 nM

## KGVEYNIDK
[13]; [37]
  IC50: 31600 nM

## SIPLGVIHN
[13]; source organism: Zaire ebolavirus
  IC50: ≥ 158000 nM

## RSVALVPHV
[10]; [33]
  Kd: 8.81 nM

## PYEGGKVFA
[14]
  IC50: 13900 nM
[13]; [37]
  IC50: ≥ 118000 nM

## KRLSVNQKY
[15]
  Kd: 62.2 nM
[8]; source organism: Francisella tularensis subsp. holarctica LVS
  Kd: ≥ 20000 nM

## GTSGSPIINR
[16]
  Kd: 13.8 nM
[9]; [34]
  Kd: 4000 nM

## RRDKRSVAL
[8]; source organism: Dengue virus
  Kd: 153 nM

## TLTAAVLLLV
[5]; [38]
  Kd: 219 nM
[12]; [38]
  Kd: 5.74 nM

## WMSSEGAWKH
[10]; [33]
  Kd: 215 nM

## ALLLLVAHYA
[5]; [33]
  Kd: ≥ 70400 nM
[7]; [33]
  Kd: 1330 nM

## LLLMRTSWAL
[5]; [35]
  Kd: 15.3 nM
[6]; [34]
  Kd: 13.3 nM
[17]
  Kd: 1.47 nM
[7]; [35]
  Kd: 5.52 nM

## TVIPFYFVW
[18]; [39]
  Kd: 41.3 nM
[19]; [39]
  Kd: 275 nM
[20]; [39]
  Kd: 6.8 nM

## KLQLKGMSY
[21]
  Kd: 131 nM
[22]
  Kd: ≥ 20000 nM

## TLMAMDLGEL
[5]; [40]
  Kd: 273 nM
[12]; source organism: Dengue virus 2 Peru/IQT2913/1996
  Kd: 8.36 nM
[7]; [40]
  Kd: 14.5 nM

## ALSEGVYRI
[5]; [41]
  Kd: 172 nM
[12]; [41]
  Kd: 17.3 nM
[7]; [41]
  Kd: 2.88 nM

## VASEMAEALK
[10]; [32]
  Kd: ≥ 10000 nM

## KLYEGDLRV
[1]; [42]
  Kd: 5 nM
[2]; [42]
  Kd: 8 nM
[3]; [42]
  Kd: ≤ 1 nM
[4]; source organism: Orthohantavirus andesense
  Kd: ≤ 1 nM

## KSFLVHREW
[20]; source organism: West Nile virus
  Kd: 5.7 nM

## AEWLEMICF
[23]; [43]
  Kd: 82.5 nM
[24]; [43]
  Kd: 68.1 nM
[25]; [43]
  Kd: 164 nM
[26]; [43]
  Kd: 44.6 nM
[27]; [43]
  Kd: 19.4 nM
[28]; [43]
  Kd: 2010 nM

## KLFMALVAFL
[5]; [33]
  Kd: 51.8 nM
[12]; [33]
  Kd: 3.35 nM
[7]; [33]
  Kd: 46.6 nM

## RSLIGNEEY
[29]
  Kd: 6720 nM
[21]
  Kd: ≥ 30100 nM
[10]; [33]
  Kd: 27.2 nM

## ISGSNIVIF
[18]; [44]
  Kd: 904 nM
[19]; [44]
  Kd: ≥ 20000 nM
[20]; [44]
  Kd: 155 nM

## FEDQFLPFMS
[23]; [45]
  Kd: 3500 nM
[24]; [45]
  Kd: ≥ 27200 nM
[25]; [45]
  Kd: 2390 nM
[26]; [45]
  Kd: 14600 nM
[27]; [45]
  Kd: 312 nM
[28]; [45]
  Kd: 3890 nM

## LAVMGDAAW
[19]; [46]
  Kd: 35.5 nM
[20]; [46]
  Kd: 27 nM
